Measured values taken from US20150010572A1 (SAMSUNG ELECTRONICS, published 2015).

T1: mutant Ang-2 protein, S417 substituted with alanine (FLAG-tagged at N-terminal) (human, UniProt O15123 281-496, limits assumed)
T1 chain: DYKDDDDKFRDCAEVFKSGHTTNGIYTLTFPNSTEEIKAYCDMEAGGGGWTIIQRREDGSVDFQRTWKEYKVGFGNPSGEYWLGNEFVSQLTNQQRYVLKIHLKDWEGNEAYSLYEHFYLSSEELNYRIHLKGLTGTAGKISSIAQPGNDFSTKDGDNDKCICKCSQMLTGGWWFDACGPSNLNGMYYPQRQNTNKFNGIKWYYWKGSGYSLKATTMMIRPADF

T2: mutant Ang-2 protein, P452 substituted with alanine (FLAG-tagged at N-terminal) (human, UniProt O15123 281-496, limits assumed)
T2 chain: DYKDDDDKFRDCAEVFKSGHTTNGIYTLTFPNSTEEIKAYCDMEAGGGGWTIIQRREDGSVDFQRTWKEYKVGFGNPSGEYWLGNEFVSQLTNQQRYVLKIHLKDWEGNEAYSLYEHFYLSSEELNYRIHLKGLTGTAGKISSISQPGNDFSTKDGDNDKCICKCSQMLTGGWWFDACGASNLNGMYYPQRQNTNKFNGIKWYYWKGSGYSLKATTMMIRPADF

T3: mutant Ang-2 protein, Y460 substituted with alanine (FLAG-tagged at N-terminal) (human, UniProt O15123 281-496, limits assumed)
T3 chain: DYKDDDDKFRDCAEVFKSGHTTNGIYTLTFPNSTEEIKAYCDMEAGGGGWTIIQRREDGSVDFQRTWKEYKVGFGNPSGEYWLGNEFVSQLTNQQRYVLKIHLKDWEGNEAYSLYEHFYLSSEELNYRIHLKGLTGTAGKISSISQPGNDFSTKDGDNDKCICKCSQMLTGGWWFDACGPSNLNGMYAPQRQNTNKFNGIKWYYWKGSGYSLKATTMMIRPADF

T4: mutant Ang-2 protein, N467 substituted with alanine (FLAG-tagged at N-terminal) (human, UniProt O15123 281-496, limits assumed)
T4 chain: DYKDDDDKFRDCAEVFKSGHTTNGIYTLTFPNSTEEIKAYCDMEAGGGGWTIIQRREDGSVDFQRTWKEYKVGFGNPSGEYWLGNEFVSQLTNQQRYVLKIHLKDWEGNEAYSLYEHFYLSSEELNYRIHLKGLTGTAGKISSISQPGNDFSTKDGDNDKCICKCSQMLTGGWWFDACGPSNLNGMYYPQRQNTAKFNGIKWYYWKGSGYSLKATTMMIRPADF

T5: mutant Ang-2 protein, K468 substituted with alanine (FLAG-tagged at N-terminal) (human, UniProt O15123 281-496, limits assumed)
T5 chain: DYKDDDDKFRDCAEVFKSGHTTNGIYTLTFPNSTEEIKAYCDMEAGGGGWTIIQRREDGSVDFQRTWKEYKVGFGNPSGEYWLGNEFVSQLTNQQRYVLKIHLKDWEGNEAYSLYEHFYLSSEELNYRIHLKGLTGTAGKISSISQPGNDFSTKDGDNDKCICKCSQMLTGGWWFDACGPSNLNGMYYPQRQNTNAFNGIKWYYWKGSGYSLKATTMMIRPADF

B1: SAIT-Ang-2-AB-m8B3 (antibody, V domains shown)
VH: DVQLQESGPGLVKPSQSLSLSCTVTGYSIASDYAWNWIRQFPGNKVEWMGYINYRGNTDYNPSLKSRSSINRDTSKNQFFLQLNSVTTGDTATYYCARGNFEGAMDYWGQGTSVTVSS
VL: TIVMTQTPKFLLVSAGDRITITCKASQSVSNDVAWYQQKPGQSPKLLIYYASNRYPGVPDRFTGSGYGTDFTFTISTVQAEDLAVYFCQQDYTSPWTFGGGTELEIK
notes: also called KCLRF-BP-00293
B2: SAIT-Ang-2-AB-m2E7 (antibody, V domains shown)
VH: DLQLQESGPGLVKPSQSLSLTCTVTGYSITSDYAWNWIRQFPGNKLEWMGYISYSGSTSYNPSLKSRISITRDTSKNQFFLQLNSLTTEDTATYYCARGDYGNYVGPMDYWGQGTSVTVSS
VL: SIVMTQTPKFLLVSAGDRVTITCKASQSVSNDVAWYRQKPGQSPKLLIYYASNRYTGVPDRFTGSGYGTDFTFTISTVQAEDLAVYFCQQDYSSPLTFGARTKLELK
notes: also called KCLRF-BP-00294

What was measured:
Assay in all cases: ELISA, antibody coated, 250 ng FLAG-tagged mutant Ang-2, anti-FLAG-HRP, OD450 relative to native Ang-2
[1] = target: T1, mutant Ang-2 protein, S417 substituted …
Protocol: (§1) Each well of a 96-well MaxiSorp™ flat-bottom plate (Nunc) was coated with 50 ul (microliter) of 1000 nM antibodies (Example 2). Then, the plate was washed five times with a 0.05% (v/v) Tween-20 containing PBS (PBST) and blocked with a 1% (v/v) BSA containing PBS at a room temperature for 2 hours. 250 ng of each mutant Ang-2 protein obtained by substituting S417, Q418, P419, N421, 1434, D448, A449, P452, Y460, N467, K468, or F469 residue of Ang-2 protein tagged with a FLAG sequence ([…], Sigma) at its N-terminal with alanine was added to each well of the plate, which was then allowed to react at a room temperature for 2 hours.
(§2) The plate was washed five times with a 0.05% (v/v) Tween-20 containing PBS, reacted with an anti-FLAG antibody (SIGMA) conjugated with HRP which was diluted in a 1% (v/v) BSA containing PBS at a ratio of 1:5,000 (v/v) at a room temperature for 1 hour, and washed five times with a 0.1% (v/v) Tween-20 containing PBS.
(§3) Finally, 50 ul of TMB substrates (Cell signaling) was added to each well of the plate to induce color development reaction at a room temperature for 3 min. and the reaction was ceased by the addition of 50 ul of Stop solution (Cell signaling) and then, OD450 values were measured on a plate reader (Molecular Devices). By comparing binding affinities with mutated Ang-2 to those of unmutated Ang-2, each epitope of Ang-2 antibodies was identified. The thus obtained measurement results of the binding affinities (%) of mutant Ang-2 against the binding affinity of the native Ang-2 are shown in the following Table 9.

[2] = target: T2, mutant Ang-2 protein, P452 substituted …
Protocol: as §1, §2, §3

[3] = target: T3, mutant Ang-2 protein, Y460 substituted …
Protocol: as §1, §2, §3

[4] = target: T4, mutant Ang-2 protein, N467 substituted …
Protocol: as §1, §2, §3

[5] = target: T5, mutant Ang-2 protein, K468 substituted …
Protocol: as §1, §2, §3

| Binder | % at RBD binding (mutant Ang-2 against native Ang-2) [1] [%] | % at RBD binding (mutant Ang-2 against native Ang-2) [2] [%] | % at RBD binding (mutant Ang-2 against native Ang-2) [3] [%] | % at RBD binding (mutant Ang-2 against native Ang-2) [4] [%] | % at RBD binding (mutant Ang-2 against native Ang-2) [5] [%] |
| --- | --- | --- | --- | --- | --- |
| B1 | 95.4 | 102 | 100 | 95.1 | 105 |
| B2 | 98.3 | 90.1 | 98.7 | 96 | 101 |
